This note sets out measurements from publication doi:10.1101/2022.04.29.490010 (bioRxiv, 2022).

Data set [1] deals with the molecule itself. Briefly: SEC-MALS. On the technique in general: In gel filtration, larger molecules generally elute earlier.
Data set [2] concerns the molecule itself. Briefly: SEC.

B1: EndoA wild type (Drosophila Endophilin-A, GST tag cleaved) (natural protein, UniProt Q8T390 1-369, looked up)
chain: MAFAGLKKQINKANQYMTEKMGGAEGTKLDMDFMEMERKTDVTVELVEELQLKTKEFLQPNPTARAKMAAVKGISKLSGQAKSNTYPQPEGLLAECMLTYGKKLGEDNSVFAQALVEFGEALKQMADVKYSLDDNIKQNFLEPLHHMQTKDLKEVMHHRKKLQGRRLDFDCKRRRQAKDDEIRGAEDKFGESLQLAQVGMFNLLENDTEHVSQLVTFAEALYDFHSQCADVLRGLQETLQEKRSEAESRPRNEFVPKTLLDLNLDGGGGGLNEDGTPSHISSSASPLPSPMRSPAKSMAVTPQRQQQPCCQALYDFEPENPGELAFKENDIITLLNRVDDNWFEGAVNGRTGYFPQSYVQVQVPLPNGN
As a reminder, the stoichiometry N is a count of units in the complex or per binding partner. As for B1, the “stoichiometry N” value in data set [1] was 2.

B2: EndoA^D265A (Drosophila Endophilin-A D265A, GST tag cleaved) (natural protein, UniProt Q8T390 1-369, looked up)
chain: MAFAGLKKQINKANQYMTEKMGGAEGTKLDMDFMEMERKTDVTVELVEELQLKTKEFLQPNPTARAKMAAVKGISKLSGQAKSNTYPQPEGLLAECMLTYGKKLGEDNSVFAQALVEFGEALKQMADVKYSLDDNIKQNFLEPLHHMQTKDLKEVMHHRKKLQGRRLDFDCKRRRQAKDDEIRGAEDKFGESLQLAQVGMFNLLENDTEHVSQLVTFAEALYDFHSQCADVLRGLQETLQEKRSEAESRPRNEFVPKTLLDLNLAGGGGGLNEDGTPSHISSSASPLPSPMRSPAKSMAVTPQRQQQPCCQALYDFEPENPGELAFKENDIITLLNRVDDNWFEGAVNGRTGYFPQSYVQVQVPLPNGN
For B2, the “stoichiometry N” value in data set [1] was 2.

B3: EndoA^D265R (Drosophila Endophilin-A D265R, GST tag cleaved) (natural protein, UniProt Q8T390 1-369, looked up)
chain: MAFAGLKKQINKANQYMTEKMGGAEGTKLDMDFMEMERKTDVTVELVEELQLKTKEFLQPNPTARAKMAAVKGISKLSGQAKSNTYPQPEGLLAECMLTYGKKLGEDNSVFAQALVEFGEALKQMADVKYSLDDNIKQNFLEPLHHMQTKDLKEVMHHRKKLQGRRLDFDCKRRRQAKDDEIRGAEDKFGESLQLAQVGMFNLLENDTEHVSQLVTFAEALYDFHSQCADVLRGLQETLQEKRSEAESRPRNEFVPKTLLDLNLRGGGGGLNEDGTPSHISSSASPLPSPMRSPAKSMAVTPQRQQQPCCQALYDFEPENPGELAFKENDIITLLNRVDDNWFEGAVNGRTGYFPQSYVQVQVPLPNGN
As for B3, the “stoichiometry N” value in data set [1] came to 2.

B4: ENDOA1^WT (human Endophilin-A1, recombinant, GST tag cleaved) (natural protein, UniProt Q99962 1-352, looked up)
chain: MSVAGLKKQFHKATQKVSEKVGGAEGTKLDDDFKEMERKVDVTSRAVMEIMTKTIEYLQPNPASRAKLSMINTMSKIRGQEKGPGYPQAEALLAEAMLKFGRELGDDCNFGPALGEVGEAMRELSEVKDSLDIEVKQNFIDPLQNLHDKDLREIQHHLKKLEGRRLDFDYKKKRQGKIPDEELRQALEKFDESKEIAESSMFNLLEMDIEQVSQLSALVQAQLEYHKQAVQILQQVTVRLEERIRQASSQPRREYQPKPRMSLEFPTGDSTQPNGGLSHTGTPKPSGVQMDQPCCRALYDFEPENEGELGFKEGDIITLTNQIDENWYEGMLHGHSGFFPINYVEILVALPH
On to B4, for which the “stoichiometry N” value in data set [2] was 2.

B5: ENDOA1^G276V (human Endophilin-A1 with the Parkinson's disease risk variant G276V, recombinant, GST tag cleaved) (natural protein, UniProt Q99962 1-352, looked up)
chain: MSVAGLKKQFHKATQKVSEKVGGAEGTKLDDDFKEMERKVDVTSRAVMEIMTKTIEYLQPNPASRAKLSMINTMSKIRGQEKGPGYPQAEALLAEAMLKFGRELGDDCNFGPALGEVGEAMRELSEVKDSLDIEVKQNFIDPLQNLHDKDLREIQHHLKKLEGRRLDFDYKKKRQGKIPDEELRQALEKFDESKEIAESSMFNLLEMDIEQVSQLSALVQAQLEYHKQAVQILQQVTVRLEERIRQASSQPRREYQPKPRMSLEFPTGDSTQPNGVLSHTGTPKPSGVQMDQPCCRALYDFEPENEGELGFKEGDIITLTNQIDENWYEGMLHGHSGFFPINYVEILVALPH
In the case of B5, the “stoichiometry N” value in data set [2] worked out at 2.
